Results on 1 substance are retold here after patent publication US20100061979A1.

Test [1] concerns the target FGF-2 (UniProt P09038). In words: BIAcore, two-state reaction with conformation change model.
Test [2] addresses FGF-2 (UniProt P09038). As to the kind of experiment: BIAcore.

Sequence of UniProt P09038 (P09038 143-288 limits assumed): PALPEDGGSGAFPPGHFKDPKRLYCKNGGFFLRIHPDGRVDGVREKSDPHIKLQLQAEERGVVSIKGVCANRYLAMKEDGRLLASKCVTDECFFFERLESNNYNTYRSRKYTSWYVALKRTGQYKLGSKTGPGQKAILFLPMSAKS

In the case of “sFGFR2-Fc variant 4493 (no Ig-like domain 1) (from UniProt P21802 126-377) (Fc fusion)”, the Kd with FGF-2 [1] and with FGF-2 [2] was 1.19 nM in each case.
